This note sets out measurements from patent publication US20130323249A1 (published 2013).

This assay deals with human PD-L1 expressed on the surface of cells (human, UniProt Q9NZQ7 19-290). Kind of assay: FACS binding to human lymphocytes. In general terms: A flow cytometer gives signals particle by particle.
Sequence of human PD-L1 expressed on the surface of cells (Q9NZQ7 19-290): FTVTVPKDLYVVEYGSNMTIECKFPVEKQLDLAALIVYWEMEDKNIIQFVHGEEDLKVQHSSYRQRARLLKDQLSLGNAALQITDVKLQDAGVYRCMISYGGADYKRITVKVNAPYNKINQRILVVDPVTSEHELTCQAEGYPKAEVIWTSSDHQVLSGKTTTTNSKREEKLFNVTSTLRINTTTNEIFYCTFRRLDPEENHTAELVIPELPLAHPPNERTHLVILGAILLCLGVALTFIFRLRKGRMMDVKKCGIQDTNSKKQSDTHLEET

B1: H10 anti-PD-L1 antibody (antibody, V domains shown)
VH: EVQLVQSGGGLVQPGGSLRLSCAASGFTFSSYSMNWVRQAPGKGLEWVSYISSSSSTIYYADSVKGRFTISRDNAKNSLYLQMNSLRDEDTAVYYCARGDYYYGMDVWGQGTTVTVSS
VL: EIVLTQSPSSLSASIGDRVTLTCRASQSIRRFLNWYQQKPGKAPELLIYTASSLQSGVPSRFSGSGSGTDFTLTINSLQPEDFATYYCQQSYAVSPYTFGQGTKVEIR
In general, EC50 refers to the midpoint of the concentration-response curve. A lower EC50 goes with a more potent agent. In turn, B1 had an EC50 of 0.021 µg/mL.

B2: H6 anti-PD-L1 antibody (antibody, V domains shown)
VH: QMQLVQSGAEVKKPGSSVKVSCKASGGTFSSYAISWVRQAPGQGLEWMGGIIPIFGTANYAQKFQGRVTITADESTSTAYMELSSLRSEDTAVYYCARGNIVATITPLDYWGQGTLVTVSS
VL: SYELMQPPSVSVAPGKTATIACGGENIGRKTVHWYQQKPGQAPVLVIYYDSDRPSGIPERFSGSNSGNTATLTISRVEAGDEADYYCQVWDSSSDHRIFGGGTKLTVL
For the molecule B2, the EC50 was found to be 0.03 µg/mL.
